US20130310313A1

Target: insulin receptor (insulin receptor tyrosine kinase assay)
Assay: cell-based or functional assay

Binder	activity of insulin receptor tyrosine kinase
RYKYQWFYI [IRBP-9A (SEQ ID NO:190)]	40.3 U/ml
RYKYQCWYI [IRBP-9D (SEQ ID NO:193)]	66 U/ml
RYKYQWWYI [IRBP-9C (SEQ ID NO:192)]	44.2 U/ml
RYKYQCFYI [IRBP-9B (SEQ ID NO:191)]	79.8 U/ml
